Measurements from patent US20250262210A1 (TRUSTEES OF COLUMBIA UNIVERSITY IN THE CITY OF NEW YORK, published 2025).

Columns and labels:
Experiment in all cases: IP/MS, LZTR1 wild type-FLAG, U87
IFT172 = IFT172 (human, UniProt Q9UG01 1-1749, limits assumed)
Method in brief: (§1)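 Gel slices were reduced with 5 mM DTT, alkylated with 11 mM IAA and digested overnight at 37° C. with trypsin. Peptides were analysed on an Orbitrap Fusion Tribrid by LC-MS/MS.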

STK11IP = molecular target: T1, STK11IP (human, UniProt Q8N1F8 1-1088)
T1 sequence (looked up): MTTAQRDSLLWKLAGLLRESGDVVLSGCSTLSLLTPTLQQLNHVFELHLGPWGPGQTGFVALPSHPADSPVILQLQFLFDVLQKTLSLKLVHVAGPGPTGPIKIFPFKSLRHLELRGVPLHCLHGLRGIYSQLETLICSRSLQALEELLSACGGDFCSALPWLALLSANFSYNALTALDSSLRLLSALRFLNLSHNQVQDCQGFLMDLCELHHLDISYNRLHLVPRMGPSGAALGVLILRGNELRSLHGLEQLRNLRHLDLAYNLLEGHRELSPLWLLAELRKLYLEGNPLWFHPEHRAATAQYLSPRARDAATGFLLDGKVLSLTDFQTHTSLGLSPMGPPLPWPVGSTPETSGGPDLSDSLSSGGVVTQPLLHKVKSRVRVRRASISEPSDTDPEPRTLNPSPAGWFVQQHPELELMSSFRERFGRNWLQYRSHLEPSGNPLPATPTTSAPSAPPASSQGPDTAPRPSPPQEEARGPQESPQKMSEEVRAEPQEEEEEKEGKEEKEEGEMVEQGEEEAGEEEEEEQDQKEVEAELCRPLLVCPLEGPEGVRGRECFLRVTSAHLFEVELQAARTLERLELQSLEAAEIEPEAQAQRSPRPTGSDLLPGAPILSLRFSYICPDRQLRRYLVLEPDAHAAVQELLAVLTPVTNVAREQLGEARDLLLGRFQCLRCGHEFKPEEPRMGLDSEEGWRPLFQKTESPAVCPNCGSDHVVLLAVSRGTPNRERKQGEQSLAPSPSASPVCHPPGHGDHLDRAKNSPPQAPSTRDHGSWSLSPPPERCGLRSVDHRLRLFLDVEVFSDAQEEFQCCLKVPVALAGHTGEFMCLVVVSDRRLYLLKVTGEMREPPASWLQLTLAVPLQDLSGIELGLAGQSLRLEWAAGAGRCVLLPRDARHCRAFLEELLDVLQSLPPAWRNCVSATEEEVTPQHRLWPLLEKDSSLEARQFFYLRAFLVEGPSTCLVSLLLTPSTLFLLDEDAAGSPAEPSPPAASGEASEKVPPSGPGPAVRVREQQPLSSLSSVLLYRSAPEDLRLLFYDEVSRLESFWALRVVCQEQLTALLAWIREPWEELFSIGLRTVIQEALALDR
Method in brief: as §1

ANKRD52 = molecular target: T2, ANKRD52 (human, UniProt Q8NB46 1-1076)
T2 sequence (looked up): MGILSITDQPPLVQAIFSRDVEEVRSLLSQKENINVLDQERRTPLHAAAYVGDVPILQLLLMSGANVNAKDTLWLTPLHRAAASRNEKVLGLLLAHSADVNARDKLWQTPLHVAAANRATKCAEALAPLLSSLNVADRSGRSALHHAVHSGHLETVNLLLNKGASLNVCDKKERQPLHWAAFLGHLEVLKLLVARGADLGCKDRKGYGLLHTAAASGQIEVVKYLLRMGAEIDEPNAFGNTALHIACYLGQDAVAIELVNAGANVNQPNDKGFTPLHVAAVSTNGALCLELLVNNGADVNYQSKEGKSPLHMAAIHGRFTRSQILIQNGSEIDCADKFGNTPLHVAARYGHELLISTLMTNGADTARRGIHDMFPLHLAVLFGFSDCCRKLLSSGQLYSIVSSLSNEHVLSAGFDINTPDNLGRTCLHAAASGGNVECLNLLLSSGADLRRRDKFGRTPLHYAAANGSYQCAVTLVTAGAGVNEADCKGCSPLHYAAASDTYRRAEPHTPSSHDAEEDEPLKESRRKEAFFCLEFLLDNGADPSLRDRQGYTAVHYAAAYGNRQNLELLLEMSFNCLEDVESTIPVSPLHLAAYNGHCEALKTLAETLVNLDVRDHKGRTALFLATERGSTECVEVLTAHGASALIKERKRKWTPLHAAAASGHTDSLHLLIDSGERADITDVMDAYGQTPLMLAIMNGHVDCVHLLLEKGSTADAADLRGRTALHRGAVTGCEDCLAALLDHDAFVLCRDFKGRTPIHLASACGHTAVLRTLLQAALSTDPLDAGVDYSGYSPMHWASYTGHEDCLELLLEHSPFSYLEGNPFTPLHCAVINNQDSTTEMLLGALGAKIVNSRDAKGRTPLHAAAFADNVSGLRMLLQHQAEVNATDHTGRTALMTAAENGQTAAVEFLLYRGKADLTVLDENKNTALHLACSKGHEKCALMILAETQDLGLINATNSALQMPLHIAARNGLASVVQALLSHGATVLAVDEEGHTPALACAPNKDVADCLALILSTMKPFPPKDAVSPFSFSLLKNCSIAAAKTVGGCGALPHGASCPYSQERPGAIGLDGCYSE
Method in brief: as §1

Chain of IFT172 (Q9UG01 whole entry, the tested form may be a part): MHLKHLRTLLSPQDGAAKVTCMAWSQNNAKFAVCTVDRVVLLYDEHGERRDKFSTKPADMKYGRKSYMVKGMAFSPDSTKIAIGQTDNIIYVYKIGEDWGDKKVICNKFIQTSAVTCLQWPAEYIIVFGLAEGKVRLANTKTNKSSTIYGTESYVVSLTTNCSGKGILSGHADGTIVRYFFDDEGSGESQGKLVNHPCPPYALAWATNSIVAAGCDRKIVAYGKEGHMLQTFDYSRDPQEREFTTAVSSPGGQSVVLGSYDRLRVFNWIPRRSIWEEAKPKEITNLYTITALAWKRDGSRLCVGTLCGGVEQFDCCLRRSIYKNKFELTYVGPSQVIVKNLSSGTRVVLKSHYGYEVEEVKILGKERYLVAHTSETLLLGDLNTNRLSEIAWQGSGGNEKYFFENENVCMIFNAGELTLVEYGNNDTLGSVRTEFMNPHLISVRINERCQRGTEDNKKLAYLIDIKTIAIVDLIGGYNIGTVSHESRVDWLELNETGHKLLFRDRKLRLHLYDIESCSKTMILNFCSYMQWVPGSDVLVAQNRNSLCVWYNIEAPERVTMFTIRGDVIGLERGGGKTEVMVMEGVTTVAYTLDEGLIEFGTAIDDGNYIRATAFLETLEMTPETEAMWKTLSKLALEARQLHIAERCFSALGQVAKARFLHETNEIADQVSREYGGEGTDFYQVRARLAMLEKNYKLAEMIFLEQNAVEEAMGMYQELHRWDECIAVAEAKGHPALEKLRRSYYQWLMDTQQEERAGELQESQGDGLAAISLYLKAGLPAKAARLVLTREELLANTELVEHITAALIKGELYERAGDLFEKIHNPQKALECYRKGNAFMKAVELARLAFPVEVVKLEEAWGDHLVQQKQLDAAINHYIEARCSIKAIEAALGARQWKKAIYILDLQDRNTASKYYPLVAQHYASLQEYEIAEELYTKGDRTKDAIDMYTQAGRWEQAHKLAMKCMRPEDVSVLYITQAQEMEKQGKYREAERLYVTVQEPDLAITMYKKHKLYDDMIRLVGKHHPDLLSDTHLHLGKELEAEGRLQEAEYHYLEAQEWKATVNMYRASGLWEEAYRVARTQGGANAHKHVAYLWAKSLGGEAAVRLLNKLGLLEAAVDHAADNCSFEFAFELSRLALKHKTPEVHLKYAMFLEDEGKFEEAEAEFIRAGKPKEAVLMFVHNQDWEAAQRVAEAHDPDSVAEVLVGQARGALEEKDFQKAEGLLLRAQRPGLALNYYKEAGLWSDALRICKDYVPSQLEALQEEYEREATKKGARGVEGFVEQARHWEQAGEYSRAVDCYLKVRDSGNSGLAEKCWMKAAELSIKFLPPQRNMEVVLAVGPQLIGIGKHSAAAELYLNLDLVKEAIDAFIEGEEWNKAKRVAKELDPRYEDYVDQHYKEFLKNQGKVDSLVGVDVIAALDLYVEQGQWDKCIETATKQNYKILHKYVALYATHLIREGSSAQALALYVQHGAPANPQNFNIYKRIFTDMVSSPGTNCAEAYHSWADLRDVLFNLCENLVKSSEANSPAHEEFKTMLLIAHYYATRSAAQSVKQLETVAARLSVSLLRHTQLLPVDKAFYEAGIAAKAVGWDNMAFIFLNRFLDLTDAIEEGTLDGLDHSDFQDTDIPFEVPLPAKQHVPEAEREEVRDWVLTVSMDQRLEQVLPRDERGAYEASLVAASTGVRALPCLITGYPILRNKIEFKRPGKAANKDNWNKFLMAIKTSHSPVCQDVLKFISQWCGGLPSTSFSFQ

binding result (IFT172): binds
binding result (STK11IP): binds
binding result (ANKRD52): binds
B1: LZTR1-FLAG (other, human, UniProt Q8N653 1-840, looked up)
chain: MAGPGSTGGQIGAAALAGGARSKVAPSVDFDHSCSDSVEYLTLNFGPFETVHRWRRLPPCDEFVGARRSKHTVVAYKDAIYVFGGDNGKTMLNDLLRFDVKDCSWCRAFTTGTPPAPRYHHSAVVYGSSMFVFGGYTGDIYSNSNLKNKNDLFEYKFATGQWTEWKIEGRLPVARSAHGATVYSDKLWIFAGYDGNARLNDMWTIGLQDRELTCWEEVAQSGEIPPSCCNFPVAVCRDKMFVFSGQSGAKITNNLFQFEFKDKTWTRIPTEHLLRGSPPPPQRRYGHTMVAFDRHLYVFGGAADNTLPNELHCYDVDFQTWEVVQPSSDSEVGGAEVPERACASEEVPTLTYEERVGFKKSRDVFGLDFGTTSAKQPTQPASELPSGRLFHAAAVISDAMYIFGGTVDNNIRSGEMYRFQFSCYPKCTLHEDYGRLWESRQFCDVEFVLGEKEECVQGHVAIVTARSRWLRRKITQARERLAQKLEQEAAPVPREAPGVAAGGARPPLLHVAIREAEARPFEVLMQFLYTDKIKYPRKGHVEDVLLIMDVYKLALSFQLCRLEQLCRQYIEASVDLQNVLVVCESAARLQLSQLKEHCLNFVVKESHFNQVIMMKEFERLSSPLIVEIVRRKQQPPPRTPLDQPVDIGTSLIQDMKAYLEGAGAEFCDITLLLDGHPRPAHKAILAARSSYFEAMFRSFMPEDGQVNISIGEMVPSRQAFESMLRYIYYGEVNMPPEDSLYLFAAPYYYGFYNNRLQAYCKQNLEMNVTVQNVLQILEAADKTQALDMKRHCLHIIVHQFTKVSKLPTLRSLSQQLLLDIIDSLASHISDKQCAELGADI
notes: Expressed in HEK 293T, HeLa or U87 cells; used as cell lysate; also called LZTR1 wild type-FLAG; LZTR1 WT; not shown: FLAG tag at the C-terminus
